Test results from IntAct's records for PubMed 11520064.

B1: Frizzled-8 (Mus musculus), Q61091 (parent)
chain: MEWGYLLEVTSLLAALAVLQRSSGAAAASAKELACQEITVPLCKGIGYNYTYMPNQFNHDTQDEAGLEVHQFWPLVEIQCSPDLKFFLCSMYTPICLEDYKKPLPPCRSVCERAKAGCAPLMRQYGFAWPDRMRCDRLPEQGNPDTLCMDYNRTDLTTAAPSPPRRLPPPPPPGEQPPSGSGHSRPPGARPPHRGGSSRGSGDAAAAPPSRGGKARPPGGGAAPCEPGCQCRAPMVSVSSERHPLYNRVKTGQIANCALPCHNPFFSQDERAFTVFWIGLWSVLCFVSTFATVSTFLIDMERFKYPERPIIFLSACYLFVSVGYLVRLVAGHEKVACSGGAPGAGGAGGAGGAAAAGAGAAGAGASSPGARGEYEELGAVEQHVRYETTGPALCTVVFLLVYFFGMASSIWWVILSLTWFLAAGMKWGNEAIAGYSQYFHLAAWLVPSVKSIAVLALSSVDGDPVAGICYVGNQSLDNLRGFVLAPLVIYLFIGTMFLLAGFVSLFRIRSVIKQQGGPTKTHKLEKLMIRLGLFTVLYTVPAAVVVACLFYEQHNRPRWEATHNCPCLRDLQPDQARRPDYAVFMLKYFMCLVVGITSGVWVWSGKTLESWRALCTRCCWASKGAAVGAGAGGSGPGGSGPGPGGGGGHGGGGGSLYSDVSTGLTWRSGTASSVSYPKQMPLSQV

Variants of: B1
Conditions: with gopc_mouse Gopc

| Variant | effect of a mutation on the interaction |
| --- | --- |
| V685A | disrupting interaction |
